This sample holds only a part of the variants without activity.
B1: TPR 5TU (parent)
chain: GGAUCUUCUCGAUCUAACAAAAAAGACAAAUCUGCCACAAAGCUUGAGAGCAUCUUCGGAUGCAGAGGCGGCAGCCUUCGGUGGCGCGAUAGCGCCAACGUUCUCAACUAUGACACGCAAAACGCGUGCUCCGUUGAAUGGAGUUUAUCAUG

Variants of: B1
Assay: polymerase ribozyme fitness, log enrichment relative to wild type (log ratio); higher = more active; in vitro selection for triplet polymerase activity
Outline: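 Fitness measures genotype enrichment against wild-type enrichment on a logarithmic scale, with inverse-variance-weighted averaging of replicates. The logarithm is base 2, and genotypes were kept only with ≥10 input reads and ≥1 read per output in Illumina sequencing. The sequenced libraries came from one triplicate in vitro selection round, including frozen incubation at −7 °C, of PCR-built, transcribed mutant libraries of each subunit of a heterodimeric triplet polymerase ribozyme.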

Point of comparison: U55A A115U, “polymerase ribozyme fitness (log ratio)” value -1.89. Against it:
- C54A C69A G84A G88A — lower, ≤ -4.2
- U55A A113C — lower, -2.92
- C54U C85U C95A — within 0.2 log units, -1.84
- C54U G71U C85A C96G G133C U145G G152A — lower, ≤ -4.2
- C54U A115G — lower, -3.13
- C54U G58A G92A U145A — lower, -3.35
- C54U C57U C79A C85U C93G A107G C123G — lower, ≤ -4.2
- C54A U55G G83A U102C C108G G126A — lower, ≤ -4.2
- C54U A110C C114U A121U — lower, -4.15
- C54A C57U G59U — higher, -0.27
- C54A G94U C123G C125A U134C — lower, -3.75
- C54G C103G — lower, ≤ -4.2
- C54U U55G U82G — higher, -1.38
- C54G A97U A106C — lower, -2.99
- C54U C87U — higher, -1.08
- C54U C87G — lower, ≤ -4.2
- C54G G92C A106G — lower, -2.99
- C54A C125U — lower, -3.73
- U55A A73U C75U C93U G100A U139A U144G — lower, ≤ -4.2
- C54U G136A — higher, 0.306
- C54A A91U — lower, ≤ -4.2
- C54A A91G — lower, -3.97
- U55A A60U G84U C116G A119U — lower, -2.63
- C54U C99G U101G A142U — lower, -3.57
- C54A G141A — higher, -0.156
- C54G C116U — higher, -1.08
- C54G C103A G140C — lower, ≤ -4.2
- C54G U55A G94U A98C U146G — lower, -3.37
- C54U U55G G58A A64U G88A C95G U127A — lower, ≤ -4.2
- C54U A60G C95U — higher, -0.803
- C54A C118A — higher, -1.5
- C54A C87A C114A C116G — lower, ≤ -4.2
- C54A U61A C69U C125A — lower, ≤ -4.2
- C54A C69U — lower, -4.12
- C54A G67U — lower, -4
- C54U G81A C95U — higher, -0.559
- C54A C57G U90G U139A G140U U146A — lower, ≤ -4.2
- C54U C93U C96G U135A — lower, -3.57
- C54A A150G — lower, -3.37
- C54A U55A A60U — higher, -1.37
- C54A G65C C93G — lower, ≤ -4.2
- C54G U55A G94A C132U — lower, ≤ -4.2
- C54G C85A — lower, -3.85
- U55A A66U G74A C75A C79G G88C C95G A137U — lower, ≤ -4.2
- C54A U127C — lower, -2.28
- C54G G65A C79U C85G A91U G136C — lower, ≤ -4.2
- C54U G143A — higher, -0.736
- C54G C76A A89C A98U A115U U151A — lower, ≤ -4.2
- C54A C99U — within 0.2 log units, -1.85
- C54U C85G — lower, -2.49
- C54U C85A — lower, -2.3
- C54U C114A A137U — lower, -3.59
- C54A U104A C131U — lower, -2.14
- C54U C72U — higher, -0.468
- C54G C87U — lower, -3.59
- C54G C87A — lower, ≤ -4.2
- C54A U56G A110U U145G — lower, ≤ -4.2
- C54G U109C C116U C131U A147U — within 0.2 log units, -1.86
- C54G G83U C108U A115G G143A — lower, ≤ -4.2
- C54G G67A U77C C87A C99U U130G — lower, ≤ -4.2
- C54U A73G — higher, -0.166
- C54A C63G C69G C76G U82C C131G — lower, ≤ -4.2
- C54U G84C G100C C108A A113U G141U — lower, ≤ -4.2
- C54A U55A A106G G141A G143C C149G — lower, ≤ -4.2
- C54G C96A — lower, -2.41
- C54G C96U — higher, -1.33
- C54U C87U A115U — within 0.2 log units, -1.85
- C54U C87G C93U C125A G133A A142C — lower, ≤ -4.2
- C54A U148C — lower, -3.69
- C54G G140A U146A — lower, ≤ -4.2
- C54U C76U C85G — higher, -1.18
- C54G G83C A97U A98U — lower, -2.8
- C54A C85G C95G C114A U134G — lower, ≤ -4.2
- C54U U56A G86A U102A C116A — lower, -2.55
- C54U A91U U102G — lower, ≤ -4.2
- C54G C87U A106U A137U G140U A142C — lower, ≤ -4.2
- C54U G84C C93U U144C — lower, ≤ -4.2
- C54U G65A C85U A89G U146G — lower, -4.13
- C54G U102C U144A — lower, -3.91
- U55A A138G — lower, -2.51
- U55A A138U — lower, -3.9
- C54U G65U A73U A91U C108G — lower, ≤ -4.2
- C54A G58A A91U C95A — lower, ≤ -4.2
- C54U G70A G83A U90A G143U — lower, ≤ -4.2
- C54A G92U U135G — lower, -4.08
- U55A C57U G84A G141C — higher, -0.559
- C54A C96G C105U U144C — lower, -2.85
- U55A A142U — higher, -0.464
- C54U U56A G71A A107C A150C — lower, ≤ -4.2
- U55A A60G A137C — lower, -3
- C54U U77C G88A C96U A106C — lower, ≤ -4.2
- C54U G80A — higher, -0.56
- U55A A91U C96A C125G A142G — lower, ≤ -4.2
- C54A U144G — higher, -0.801
- C54A U61G — within 0.2 log units, -1.82
- C54U U55C C72U C87A — lower, ≤ -4.2
- C54U C57A — higher, -0.253
- C54A G94C A138C — lower, ≤ -4.2
- C54U U55G C95A A119C U127G A142C — lower, ≤ -4.2
- C54G G80C G81A C85U C129A U135C — lower, ≤ -4.2
- C54U C63G G67C G143A — lower, ≤ -4.2
- C54U C57G G84U C96A — lower, -3.23
- C54A A97U — within 0.2 log units, -1.79
- C54U A106G — higher, -0.0717
- C54U C95G A98G — within 0.2 log units, -2.01
- U55A A97U — higher, -0.916
- U55A A97C — higher, 0.466
- C54A G80A C103G A110U A120U C132G — lower, ≤ -4.2
- C54G G94A C108A C125U — lower, ≤ -4.2
- C54G U55A G70U G81C C87U G94C C96A C105A A120C — lower, ≤ -4.2
- C54U U134A — lower, -2.84
- C54A C87A — lower, -4.19
- C54A C87U — lower, -3.48
- C54A G59C G84A — higher, -0.321
- C54U G84A C105A — higher, -0.565
- C54A C105U A121G — higher, -0.876
- C54U U82A C105U A119G — higher, 0.194
- U55A A73G — higher, -0.446
- C54G U82A — within 0.2 log units, -1.98
- C54G U82G — higher, -0.687
- C54A C105U — higher, -0.396
- C54U G59C A97U — higher, -0.658
- U55A C57U C85G G94C C99G C149G — lower, ≤ -4.2
- C54U C57G G84U C85U C132U — lower, -3.94
- C54G C85U C99G — lower, -3.45
- C54U C87U C99U U135C — lower, -3.26
- C54A C57A C87A A89G — lower, ≤ -4.2
- C54U U146G — higher, -0.826
- C54U U146A — higher, -0.881
- C54A C99A G141U — lower, -2.47
- C54U C76U C93G A150G — lower, -4.08
- C54U G88A A89U C95A C99U U146G U151A — lower, ≤ -4.2
- C54G C75U C95U A147C — lower, -3.31
- C54U C95A G126U U148A — lower, ≤ -4.2
- C54U G88C — lower, ≤ -4.2
- U55A A60G C69U G92U A147U — higher, -0.244
- C54U A138G — lower, -3.19
- C54U C93G U145A — lower, ≤ -4.2
- C54A U55A C57A — higher, 0.336
- C54U A60U C87U G94U U101G U109C C116U C118U G152C — lower, ≤ -4.2
- C54U U77C G84A U109C — lower, ≤ -4.2
- C54U C96U U144G — higher, 0.217
- U55A A66C U77A C87A — lower, ≤ -4.2
- C54A U55G G58U G81C C85A — lower, -2.41
- C54U G84A U102G — lower, -4.14
- C54U A89G C95A U148G — lower, -4.18
- C54U C79U G92U C95U G141C — lower, -3.77
- C54G C72U U82A U90G G141C — lower, ≤ -4.2
- C54G G80U C103A — lower, ≤ -4.2
- C54G C87G C103A C129G C132U — lower, ≤ -4.2
- C54U U56C C93U A150U — higher, 0.278
- C54A C149G — lower, -3.71
- C54A C85U — within 0.2 log units, -1.86
- C54U G81U G83U G152U — lower, -4.17
- C54U A150G — higher, -0.995
- C54U C75G G81C U127A — lower, ≤ -4.2
- C54U C149U — higher, -0.259
- C54G C76G A89U C93A A113G C116U — lower, ≤ -4.2
- C54G G68C G80A G94U A98G — lower, ≤ -4.2
- C54A U56A C93U A120G G126U — lower, -2.38
- C54A G94U A97C C125G — lower, -2.89
- C54U A107U U111G U135A U146C — lower, -4
- C54U C87U G92C — higher, -0.365
- U55A A73C C87U G92A — within 0.2 log units, -2.04
- C54U C96A C105U — higher, 0.0167
- C54U U56A C118U — higher, -0.674

— the RNAGym collection of RNA variant scans (doi:10.1073/pnas.2313332121)
